Measured values as given in US20140370026A1.

Molecular target: CD46 (UniProt P15529)
Test: cell-based or functional assay

Sequence of CD46 (P15529 35-392 limits assumed): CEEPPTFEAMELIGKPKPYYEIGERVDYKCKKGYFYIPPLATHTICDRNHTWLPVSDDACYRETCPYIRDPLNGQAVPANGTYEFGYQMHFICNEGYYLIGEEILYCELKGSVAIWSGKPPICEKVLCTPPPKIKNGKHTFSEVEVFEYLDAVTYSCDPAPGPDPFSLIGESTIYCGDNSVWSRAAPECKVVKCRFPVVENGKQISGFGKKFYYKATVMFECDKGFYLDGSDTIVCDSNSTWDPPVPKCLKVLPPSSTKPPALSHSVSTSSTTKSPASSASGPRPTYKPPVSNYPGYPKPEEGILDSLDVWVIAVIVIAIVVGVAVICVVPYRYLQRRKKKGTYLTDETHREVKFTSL

**Q.** “anti-CD46 antibody J4.48 (Chemicon International)” was tested. Which inhibition of human CMV (BADrUL131) infectivity of ARPE-19 epithelial cells (IE1 immunofluorescence) did it give?
**A.** The inhibition of human CMV (BADrUL131) infectivity of ARPE-19 epithelial cells (IE1 immunofluorescence) was 77%.
